In US20180110770A1, “FERROPTOSIS AND GLUTAMINOLYSIS INHIBITORS AND METHODS OF TREATMENT” (MEMORIAL SLOAN-KETTERING CANCER CENTER, priority 2015, published 2018):

B1: bovine holo-transferrin: commercial iron-bound bovine holo-transferrin (Sigma) (protein, UniProt Q29443 20-704, looked up)
Serotransferrin: DPERTVRWCTISTHEANKCASFRENVLRILESGPFVSCVKKTSHMDCIKAISNNEADAVTLDGGLVYEAGLKPNNLKPVVAEFHGTKDNPQTHYYAVAVVKKDTDFKLNELRGKKSCHTGLGRSAGWNIPMAKLYKELPDPQESIQRAAANFFSASCVPCADQSSFPKLCQLCAGKGTDKCACSNHEPYFGYSGAFKCLMEGAGDVAFVKHSTVFDNLPNPEDRKNYELLCGDNTRKSVDDYQECYLAMVPSHAVVARTVGGKEDVIWELLNHAQEHFGKDKPDNFQLFQSPHGKDLLFKDSADGFLKIPSKMDFELYLGYEYVTALQNLRESKPPDSSKDECMVKWCAIGHQERTKCDRWSGFSGGAIECETAENTEECIAKIMKGEADAMSLDGGYLYIAGKCGLVPVLAENYKTEGESCKNTPEKGYLAVAVVKTSDANINWNNLKDKKSCHTAVDRTAGWNIPMGLLYSKINNCKFDEFFSAGCAPGSPRNSSLCALCIGSEKGTGKECVPNSNERYYGYTGAFRCLVEKGDVAFVKDQTVIQNTDGNNNEAWAKNLKKENFEVLCKDGTRKPVTDAENCHLARGPNHAVVSRKDKATCVEKILNKQQDDFGKSVTDCTSNFCLFQSNSKDLLFRDDTKCLASIAKKTYDSYLGDDYVRAMTNLRQCSTSKLLEACTFHKP
modifications: iron-bound
B2: bovine apo-transferrin: iron-free bovine apo-transferrin (protein, UniProt Q29443 20-704, looked up)
Serotransferrin: B1 Serotransferrin
modifications: iron-free

Test system: bax/bak-DKO MEFs
Test: Death-inducing activity of transferrin and L-Gln under amino acid starvation
Type: cell-based, mouse
Conditions: with smFBS, 12 hrs
Method: To induce cell death, 80%-confluent cells were washed with PBS twice, and then cultured in amino acid-free medium, with specific factors added as indicated in individual experiments. Cell death was analyzed by propidium iodide (PI) staining coupled with microscopy or flow cytometry. Alternatively, cell viability was determined using the CellTiter-Glo luminescent Cell Viability Assay (Promega). In assays using WT MEFs, viability was calculated by normalizing ATP levels to cells treated with amino acid-starvation in the presence of 10% (v/v) diFBS, while in assays using bax/bak-DKO MEFs, ATP levels were normalized to cells treated with amino acid and FBS double starvation.

Row | Molecule | induction of cell death in the presence of smFBS
1 | B1 | induced robust cell death
2 | B2 | does not possess killing activity
